The record followed here is PMC2764309 (Science (New York, N.Y.), 2009).

Series [1] deals with T1, HipA mutant D309Q (Escherichia coli, UniProt P23874 1-440, D309Q).
T1 sequence: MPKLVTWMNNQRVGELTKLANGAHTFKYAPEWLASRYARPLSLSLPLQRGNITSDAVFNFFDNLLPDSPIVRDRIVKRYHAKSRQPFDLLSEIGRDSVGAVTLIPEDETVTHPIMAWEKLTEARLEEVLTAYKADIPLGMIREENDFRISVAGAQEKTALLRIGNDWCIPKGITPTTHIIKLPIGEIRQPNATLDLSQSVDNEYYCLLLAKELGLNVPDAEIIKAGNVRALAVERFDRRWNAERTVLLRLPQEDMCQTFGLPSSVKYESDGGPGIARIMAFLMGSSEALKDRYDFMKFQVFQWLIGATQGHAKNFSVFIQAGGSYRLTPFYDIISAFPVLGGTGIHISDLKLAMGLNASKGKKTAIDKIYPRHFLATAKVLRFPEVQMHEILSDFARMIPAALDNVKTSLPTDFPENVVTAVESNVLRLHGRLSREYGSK
The series is described as follows: fluorescence polarisation. (Fluorescence polarisation rises when a labelled molecule tumbles more slowly, as on binding a larger partner.)

The target of series [2] is T1, HipA mutant D309Q. The experiment in a line: crystal structure.
The series “crystal structure” concerns the molecule itself. The experiment in a line: crystal structure.

As a reminder, the Kd is the equilibrium constant for the complex coming apart. In the series with HipA mutant D309Q [1], IREGGRTVGA [EF-Tu peptide IREGGRTVGA] yielded a dissociation constant (Kd) of 15 ± 5 µM.

B1: HipB (natural protein)
chain: MMSFQKIYSPTQLANAMKLVRQQNGWTQSELAKKIGIKQATISNFENNPDNTTLTTFFKILQSLELSMTLCDAKNASPESTEQQNLEW
Broadly, the stoichiometry N is a count of units in the complex or per binding partner. As for B1, the binding result in the series with HipA mutant D309Q [2] is recorded as “binds”. Further, the “stoichiometry N” value in “crystal structure” was determined as 2.
